Experimental findings from US20210371530A1 (Merck Sharp & Dohme, published 2021) are described below.

This experiment has as its target human PD-1 on cells (human, UniProt Q15116 25-288). Briefly: cell-based or functional assay.

Chain of human PD-1 on cells (Q15116 25-288): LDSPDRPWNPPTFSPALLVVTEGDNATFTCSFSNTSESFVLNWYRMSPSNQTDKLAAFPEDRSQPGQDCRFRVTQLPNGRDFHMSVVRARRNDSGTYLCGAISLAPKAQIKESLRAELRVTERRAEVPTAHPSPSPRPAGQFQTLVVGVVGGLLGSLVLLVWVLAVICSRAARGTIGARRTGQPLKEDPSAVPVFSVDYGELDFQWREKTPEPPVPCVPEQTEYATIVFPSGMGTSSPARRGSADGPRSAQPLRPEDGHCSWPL

B1: Anti-PD-1/LAG3 bispecific antibody 33ARK (bispecific antibody, human IgG1, kappa, L234A L235A)
heavy 1: EVQLVQSGAEVKKPGASVKVSCKASGYTFTSYYLYWVREAPGQGLEWIGGVNPSNGGTNFNEKFKSRVTLTVDTSISTAYMELSRLRSDDTAVYYCTRRDSNYDGGFDYWGQGTTVTVSSASTKGPSVFPLAPSSKSTSGGTAALGCEVTDYFPEPVTVSWNSGALTSGVHTFPAVLESSGLYSLSSVVTVPSSSLGTQTYICNVNHKPSNTKVDKKVEPKSCDKTHTCPPCPAPEAAGGPSVFLFPPKPKDTLMISRTPEVTCVVVSVSHEDPEVKFNWYVDGVEVHNAKTKPREEQYNSTYRVVSVLTVLHQDWLNGKEYKCKVSNKALPAPIEKTISKAKGQPREPQVYVLPPSRDELTKNQVSLLCLVKGFYPSDIAVEWESNGQPENNYLTWPPVLDSDGSFFLYSKLTVDKSRWQQGNVFSCSVMHEALHNHYTQKSLSLSPG
light 1: DIVMTQTPLSLSVTPGQPASISCRASKSVSTSGFSYLHWYLRKPGQPPQLLIFLASNLESGVPDRFSGSGSGTDFTLKISRVEAEDVGVYYCQHSWELPLTFGQGTKLEIKRTVAAPSVFIFPPSDERLKSGTASVVCLLNNFYPREAKVQWKVDNALQSGNSKESVTEQDSKDSTYSLSSRLTLSKADYEKHKVYACEVTHQGLSSPVTKSFNRGEC
heavy 2: not shown
light 2: DIVMTQTPLSLSVTPGQPASISCKASQSLDYEGDSDMNWYLEKPGQPPQLLIYGASNLESGVPDRFSGSGSGTDFTLKISRVEAEDVGVYYCQQSTEDPRTFGGGTKVEIKRTVAAPSVFIFPPSDEELKSGTASVVCLLNNFYPREAKVQWKVDNALQSGNSEESVTEQDSKDSTYSLSSTLELSKADYEKHKVYACEVTHQGLSSPVTKSFNRGEC
In the case of B1, the “AVG EC50 (nM), IL-2 luciferase reporter, Jurkat.hPD-1.IL2luc + THP-1.PD-L1 assay” value turned out to be 3.12 nM.
